Experimental data taken from patent US20220324953A1 (JIANGSU HENGRUI MEDICINE, published 2022).

T1: human CTGF (antigen of the Biacore assays) (human, UniProt P29279 27-349)
T1 construct: also called antigen human CTGF; human CTGF protein
T1 sequence (looked up): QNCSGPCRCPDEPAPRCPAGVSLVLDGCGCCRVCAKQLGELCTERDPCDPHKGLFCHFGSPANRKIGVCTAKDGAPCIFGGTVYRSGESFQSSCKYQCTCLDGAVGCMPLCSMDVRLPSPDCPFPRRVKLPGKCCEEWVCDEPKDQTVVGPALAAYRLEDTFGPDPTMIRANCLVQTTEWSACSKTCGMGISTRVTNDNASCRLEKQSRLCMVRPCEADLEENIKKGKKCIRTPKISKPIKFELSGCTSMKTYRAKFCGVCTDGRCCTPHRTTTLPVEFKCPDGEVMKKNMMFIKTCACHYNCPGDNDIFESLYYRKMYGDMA

T2: mouse CTGF (antigen of the Biacore assay) (mouse, UniProt P29268 26-348)
T2 construct: also called mouse CTGF protein
T2 sequence (looked up): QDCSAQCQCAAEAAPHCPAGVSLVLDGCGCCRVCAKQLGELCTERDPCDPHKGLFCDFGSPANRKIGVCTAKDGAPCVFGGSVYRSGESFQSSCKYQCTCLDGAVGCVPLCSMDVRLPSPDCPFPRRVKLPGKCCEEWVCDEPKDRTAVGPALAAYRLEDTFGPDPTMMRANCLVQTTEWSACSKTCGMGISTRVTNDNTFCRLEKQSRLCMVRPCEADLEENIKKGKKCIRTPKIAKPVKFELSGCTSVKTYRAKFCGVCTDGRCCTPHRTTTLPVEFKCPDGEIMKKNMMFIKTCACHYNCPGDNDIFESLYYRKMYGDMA


What was measured:
[1] = biological target: T3, Cynomolgus CTGF-Fc (fusion protein of cynomolgus CTGF coding region with Fc) (cynomolgus); experiment: ELISA, cyno-CTGF-Fc captured by anti-mFc
T3 construct: also called cyno-CTGF-mFc protein; cyno-CTGF protein with Fc tag
Experimental: The binding activity of anti-monkey CTGF antibody to monkey CTGF protein was tested by ELISA assay. A 96-well microtiter plate was directly coated with anti-mFc protein, and then the cyno-CTGF protein with Fc tag was bound to the plate, and then the antibody was added. The signal strength upon the addition of the antibody was used to determine the binding activity of the antibody to cyno-CTGF. The specific experimental procedures were as follows:
The anti-mFc Protein (Sigma, Cat No. M4280) was diluted with PBS, pH 7.4 (Shanghai Yuanpei, Cat No. B320) buffer to a concentration of 2 μg/ml, which was added into the 96-well microtiter plate (Corning, Cat No. CLS3590-100EA) at 50 μl/well, and incubated in an incubator at 37° C. for 2 hours. The liquid was removed, 250 μl/well blocking solution (5% skim milk (BD skim milk, Cat No.232100) diluted in PBS) was added, and incubated in an incubator at 37° C. for 3 hours or at 4° C. overnight (16-18 hours) for blocking. After the blocking was finished, the blocking solution was removed, the plate was washed for 3 times with PBST buffer (PBS containing 0.1% Tween-20, pH 7.4), 50 μl of 1 μg/ml cyno-CTGF-mFc protein was added into each well, incubated in an incubator at 37° C. for 1 hour, and then the plate was washed for 3 times with PBST buffer (PBS containing 0.1% Tween-20, pH 7.4). 50 μl/well of various concentrations of each of the test antibodies (antibodies purified from hybridoma or humanized antibodies) diluted with sample dilution solution were added, and incubated in an incubator at 37° C. for 1 hours. After the incubation was finished, the plate was washed for 3 times with PBST, 50 μl/well of HRP-labeled goat anti-mouse secondary antibody (Jackson Immuno Research, Cat No. 115-035-003) or goat anti-human secondary antibody (Jackson Immuno Research, Cat No. 109-035-003) diluted with sample dilution solution was added, and incubated at 37° C. for 1 hour. The plate was washed for 5 times with PBST, 50 μl/well of TMB chromogenic substrate (KPL, Cat No. 52-00-03) was added, incubated at room temperature for 5-10 min, and 50 μl/well of 1 M H₂SO₄ was added to stop the reaction. The absorbance value was read by a microplate reader (Molecular Devices, VERSA max) at a wavelength of 450 nm, and the data was analyzed with GraphPad Prism 5. The binding of CTGF antibody to cyno CTGF protein was calculated as EC50 value.

[2] = biological target: T1, human CTGF (antigen of the Biacore …); experiment: Biacore, antibody captured on Protein A, CTGF in flow, 1:1 fit
From the text: (§1) A certain amount of each of the test antibodies was affinity-captured with Protein A biosensor chip (Cat. # 29127556, GE), and then a certain concentration of human or mouse CTGF was allowed to flow through the surface of the chip. The reaction signals were detected in real time with Biacore instrument to generate a binding and dissociation curve. After the dissociation was completed in each cycle, the biosensor chip was washed and regenerated with Glycine-HCl regeneration solution pH 1.5 (Cat. # BR-1003-54, GE). The running buffer for the assay was 1×HBS-EP buffer solution (Cat. # BR-1001-88, GE).

[3] = biological target: T2, mouse CTGF (antigen of the Biacore …); experiment: Biacore, antibody captured on Protein A, mouse CTGF in flow, 1:1 fit
From the text: as §1

[4] = biological target: T1, human CTGF (antigen of the Biacore …); experiment: Biacore, CTGF immobilised, antibody 150 µg/ml then 50 nM TGF-β1 (competitor TGF-β1)
Experimental: First, the antigen human CTGF was immobilized onto a CMS biosensor chip (Cat. # BR-1005-30, GE) by amino coupling, with an immobilization level of 1500 RU, and then a high concentration of CTGF antibody (150 μg/ml) was allowed to flow through the surface of the chip for 150 s; 50 nM TGF-β1 protein was injected for 120 s, and the reaction signals were detected in real time with the Biacore T200 instrument to generate a binding and dissociation curve. After the dissociation was completed in each of the experimental cycles, the biosensor chip was washed and regenerated with regeneration buffer.
The resulting experimental data were statistically analyzed with GE Biacore T200 Evaluation version 3.0 software.

T3 sequence (chain, as listed by the source limits assumed): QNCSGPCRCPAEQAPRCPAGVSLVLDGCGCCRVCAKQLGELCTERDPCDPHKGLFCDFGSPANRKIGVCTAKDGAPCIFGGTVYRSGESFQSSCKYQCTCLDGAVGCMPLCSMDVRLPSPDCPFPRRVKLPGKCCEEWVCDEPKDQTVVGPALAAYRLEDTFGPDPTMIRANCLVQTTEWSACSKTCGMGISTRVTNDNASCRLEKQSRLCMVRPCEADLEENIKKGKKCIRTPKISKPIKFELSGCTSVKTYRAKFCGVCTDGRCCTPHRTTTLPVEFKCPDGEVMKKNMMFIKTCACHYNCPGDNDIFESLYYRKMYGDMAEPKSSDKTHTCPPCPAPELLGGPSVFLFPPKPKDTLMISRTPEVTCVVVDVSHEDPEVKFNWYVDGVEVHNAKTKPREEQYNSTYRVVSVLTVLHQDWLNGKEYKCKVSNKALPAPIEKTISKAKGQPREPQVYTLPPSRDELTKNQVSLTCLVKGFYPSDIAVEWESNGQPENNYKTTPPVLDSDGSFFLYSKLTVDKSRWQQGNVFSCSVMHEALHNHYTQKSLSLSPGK

Row | Binder | EC50 [1] | Kd [2] | koff [2] | kon [2] | Kd [3] | koff [3] | kon [3] | Function-blocking percentage (%) [4]
1 | Hu164-77wl (antibody, human IgG1, lambda, V domains shown) VH: EVQLQESGPGLVKPSQTLSLTCTVSGFSISTFGVHWIRQHPGKGLEWIGVIWRRGGTDYNAAFMSRVTISKDTSKNQVSLKLSSVTAADTAVYYCARDGGFDYWGQGTTVTVSS VL: ETVVTQEPSLTVSPGGTVTLTCRSSIGAVTTSNYANWVQQKPGQAFRGLIGGTSNRAPWTPARFSGSLLGGKAALTLSGVQPEDEAEYYCALWYSTHYVFGGGTKLTVLG | 0.038 nM | 0.343 nM | 0.0176 s⁻¹ | 5.15e+07 M⁻¹ s⁻¹ | 0.148 nM | 0.00883 s⁻¹ | 5.98e+07 M⁻¹ s⁻¹ | –
2 | Hu164-87wl (antibody, human IgG1, lambda, V domains shown) VH: EVQLQESGPGLVKPSQTLSLTCTVSGFSISTFGVHWIRQHPGKGLEWLGVIWRRGGTDYNAAFMSRLTISKDTSKNQVSFKLSSVTAADTAVYYCARDGGFDYWGQGTTVTVSS VL: ETVVTQEPSLTVSPGGTVTLTCRSSIGAVTTSNYANWVQQKPGQAFRGLIGGTSNRAPWTPARFSGSLLGGKAALTLSGVQPEDEAEYYCALWYSTHYVFGGGTKLTVLG | 0.034 nM | 0.194 nM | 0.0204 s⁻¹ | 1.05e+08 M⁻¹ s⁻¹ | 0.084 nM | 0.0044 s⁻¹ | 5.24e+07 M⁻¹ s⁻¹ | –
3 | Hu164-57wl (antibody, human IgG1, lambda, V domains shown) VH: EVTLKESGPVLVKPTETLTLTCTVSGFSLSTFGVHWIRQPPGKALEWLAVIWRRGGTDYNAAFMSRLTISKDTSKSQVVLTMTNMDPVDTATYYCARDGGFDYWGQGTTVTVSS VL: ETVVTQEPSLTVSPGGTVTLTCRSSIGAVTTSNYANWVQQKPGQAFRGLIGGTSNRAPWTPARFSGSLLGGKAALTLSGVQPEDEAEYYCALWYSTHYVFGGGTKLTVLG | 0.029 nM | 0.0691 nM | 0.00294 s⁻¹ | 4.26e+07 M⁻¹ s⁻¹ | 0.0322 nM | 0.00237 s⁻¹ | 7.35e+07 M⁻¹ s⁻¹ | –
4 | positive control CTGF antibody mAb1 (antibody, V domains shown, Positive control, from CN1829740B; also called pamrevlumab; FG-3019) VH: EGQLVQSGGGLVHPGGSLRLSCAGSGFTFSSYGMHWVRQAPGKGLEWVSGIGTGGGTYSTDSVKGRFTISRDNAKNSLYLQMNSLRAEDMAVYYCARGDYYGSGSFFDCWGQGTLVTVSS VL: DIQMTQSPSSLSASVGDRVTITCRASQGISSWLAWYQQKPEKAPKSLIYAASSLQSGVPSRFSGSGSGTDFTLTISSLQPEDFATYYCQQYNSYPPTFGQGTKLEIKR | 0.086 nM | – | – | – | – | – | – | 41.3%
5 | Hu164-68wl (antibody, human IgG1, lambda, V domains shown) VH: EVTLKESGPVLVKPTETLTLTCTVSGFSLSTFGVHWIRQPPGKGLEWLGVIWRRGGTDYNAAFMSRLTISKDTSKSQVVFTMTNMDPVDTATYYCARDGGFDYWGQGTTVTVSS VL: ETVVTQEPSFSVSPGGTVTLTCRSSIGAVTTSNYANWVQQTPGQAFRGLIGGTSNRAPGVPDRFSGSILGNKAALTITGAQADDESDYYCALWYSTHYVFGGGTKLTVLG | 0.036 nM | 0.302 nM | 0.0116 s⁻¹ | 3.84e+07 M⁻¹ s⁻¹ | 0.133 nM | 0.0076 s⁻¹ | 5.7e+07 M⁻¹ s⁻¹ | –
6 | Hu164-69wl (antibody, human IgG1, lambda, V domains shown) VH: EVTLKESGPVLVKPTETLTLTCTVSGFSLSTFGVHWIRQPPGKGLEWLGVIWRRGGTDYNAAFMSRLTISKDTSKSQVVFTMTNMDPVDTATYYCARDGGFDYWGQGTTVTVSS VL: ESVVTQPPSVSGAPGQRVTISCRSSIGAVTTSNYANWVQQLPGTAFKGLIGGTSNRAPGVPDRFSGSKSGTSASLAITGLQAEDEADYYCALWYSTHYVFGGGTKLTVLG | 0.032 nM | 0.322 nM | 0.028 s⁻¹ | 8.71e+07 M⁻¹ s⁻¹ | 0.126 nM | 0.00774 s⁻¹ | 6.17e+07 M⁻¹ s⁻¹ | –
7 | Hu147-22wk (antibody, human IgG1, kappa, V domains shown) VH: EVQLVESGGGLVQPGGSLRLSCAASGFTFNTYAMNWVRQAPGKGLEWVARIRTKSNNYATYYADSVKDRFTISRDDSKNSLYLQMNSLKTEDTAVYYCVETGFAYWDQGTLVTVSS VL: EIVLTQSPATLSLSPGERATLSCSASSSVSYMHWFQQKPGQSPKLLIYSTSNLASGIPARFSGSGSGTDYTLTISSLEPEDFAVYYCQQRSSYPLTFGQGTKLEIKR | 0.073 nM | 1.01 nM | 0.0142 s⁻¹ | 1.4e+07 M⁻¹ s⁻¹ | – | – | – | 52.3%
8 | Hu147-14wk (antibody, human IgG1, kappa, V domains shown) VH: EVQLVESGGGLVQPGGSLRLSCAASGFTFSTYAMNWVRQAPGKGLEWVGRIRTKSNNYATYYADSVKDRFTISRDDSKNSLYLQMNSLKTEDTAVYYCVETGFAYWDQGTLVTVSS VL: DIQMTQSPSSLSASVGDRVTITCSASSSVSYMHWFQQKPGKSPKLLIYSTSNLASGVPSRFSGSGSGTDYTLTISSLQPEDFATYYCQQRSSYPLTFGQGTKLEIKR | 0.077 nM | 1.13 nM | 0.0554 s⁻¹ | 4.89e+07 M⁻¹ s⁻¹ | – | – | – | 50.9%
9 | Hu147-15wk (antibody, human IgG1, kappa, V domains shown) VH: EVQLVESGGGLVQPGGSLRLSCAASGFTFSTYAMNWVRQAPGKGLEWVGRIRTKSNNYATYYADSVKDRFTISRDDSKNSLYLQMNSLKTEDTAVYYCVETGFAYWDQGTLVTVSS VL: DIQLTQSPSSLSASVGDRVTITCSASSSVSYMHWFQQKPGKSPKLWIYSTSNLASGVPSRFSGSGSGTDYTLTISSLQPEDFATYYCQQRSSYPLTFGQGTKLEIKR | 0.053 nM | – | – | – | – | – | – | 52.3%
10 | Hu147-21wk (antibody, human IgG1, kappa, V domains shown) VH: EVQLVESGGGLVQPGGSLRLSCAASGFTFNTYAMNWVRQAPGKGLEWVARIRTKSNNYATYYADSVKDRFTISRDDSKNSLYLQMNSLKTEDTAVYYCVETGFAYWDQGTLVTVSS VL: EIVLTQSPATLSLSPGERATLSCSASSSVSYMHWFQQKPGQSPRLLIYSTSNLASGIPARFSGSGSGTDYTLTISSLEPEDFAVYYCQQRSSYPLTFGQGTKLEIKR | 0.053 nM | 0.974 nM | 0.0162 s⁻¹ | 1.66e+07 M⁻¹ s⁻¹ | – | – | – | 51.6%
11 | Hu147-24wk (antibody, human IgG1, kappa, V domains shown) VH: EVQLVESGGGLVQPGGSLRLSCAASGFTFNTYAMNWVRQAPGKGLEWVARIRTKSNNYATYYADSVKDRFTISRDDSKNSLYLQMNSLKTEDTAVYYCVETGFAYWDQGTLVTVSS VL: DIQMTQSPSSLSASVGDRVTITCSASSSVSYMHWFQQKPGKSPKLLIYSTSNLASGVPSRFSGSGSGTDYTLTISSLQPEDFATYYCQQRSSYPLTFGQGTKLEIKR | 0.08 nM | – | – | – | – | – | – | 52.8%
